# The supplement of paper PMC10126150
# ± gives the standard deviation of the averaged measurements.
# Test system: ATP
# Experiment: switch fluorescence ratio, 500 uM ATP over buffer (Cy3 cluster intensity, sum of 5 cycles each) (fold (ratio)); higher = stronger signal-on switching upon ATP binding; sequences stand for … in TCGTCGGCAGCGTCAGATGTGTATAAGAGACAGTTTTTTTTTTTTTTTTTTTTTTTTT…TC
# Conditions: aptamer strand: ATP DNA aptamer (quencher-CACCTGGGGGAGTATTGCGGAGGAAGG + anchor), 100 nM annealed; ATP concentration: 500 uM
# In short: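 Switching-strand clusters labelled with Cy3 on a modified Illumina MiSeq flow-cell were annealed to 100 nM quencher-labelled ATP aptamer, imaged in selection buffer, and re-imaged after 15 min with 500 uM ATP at 22 °C. This was done over five cycles with NaOH stripping and re-annealing in between. The fluorescence ratio is summed target-cycle over summed buffer-cycle Cy3 intensity per cluster, averaged per switch-domain sequence, excluding clusters outside 100-1000 RFU.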
# 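Also: ATP exposure 15 min at 22 °C before imaging.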
row,Sequence,switch fluorescence ratio
1,TATTCGGCTG,0.997 ± 0.029
2,GATGATGCTG,1.03 ± 0.017
3,TATGTCAGCT,1.01 ± 0.032
4,AGCTGAAG,0.967 ± 0.013
5,ACTGGGTGGA,1.02 ± 0.034
6,CATGGGATGG,1.01 ± 0.0074
7,TTTACAGATT,0.982 ± 0.023
8,CTCGCACGTT,1.03 ± 0.032
9,CCGGGGCCTG,1.05 ± 0.095
10,CGAGTTCGTT,1 ± 0.025
11,GGTGGAATGT,0.983 ± 0.049
12,TACAGACCCG,1.07 ± 0.062
13,GAAGTAGTTA,1.006 ± 0.0082
14,GTTTAAACTT,0.996 ± 0.039
15,GACTTCCAGG,1.05 ± 0.026
16,GAATCGGCGT,0.991 ± 0.058
17,GGCTAAGAGT,0.991 ± 0.02
18,GTTGAATCTT,0.995 ± 0.035
19,GGGATGACAG,1.02 ± 0.072
20,ATGTAACATG,1 ± 0.027
21,GAATATACTG,1.05 ± 0.029
22,CGTTCAGTGG,1.031 ± 0.0083
23,ACGGGCTTAG,1.01 ± 0.016
24,GAAAGTAAGC,0.993 ± 0.012
25,TTGCCACTGA,1.02 ± 0.013

row,Sequence,switch fluorescence ratio
1,AAGTGTTAAT,0.9955 ± 0.0031
2,AAGGGACTTG,0.995 ± 0.018
3,TAGCACGGAT,1.02 ± 0.038
4,CGATTATGTA,0.9667 ± 0.0078
5,ATGTTGGGGG,0.989 ± 0.018
6,TAAGGGTGCA,0.994 ± 0.064
7,CGGGCCGGGA,0.976 ± 0.025
8,ATTACTGAGT,1.03 ± 0.015
9,TTGTACCATA,1.1 ± 0.071
10,ATGGGACGGG,1 ± 0.019
11,ACAGGGGTGG,1.02 ± 0.021
12,TATATGATG,1.0194 ± 0.00035
13,CGTCTTGGTG,0.999 ± 0.03
14,GGGTTGGGAT,0.995 ± 0.021
15,ATGGGAGATG,0.983 ± 0.0045
16,CGCTATATGG,1.32 ± 0.047
17,GGTGGTGGGT,0.986 ± 0.021
18,GAGTGTAGTC,1.06 ± 0.011
19,TATAGTAGTG,0.973 ± 0.014
20,ATAGAAAACT,1.4 ± 0.53
21,GATAGGTTGG,0.985 ± 0.066
22,AATTTTTTAT,0.979 ± 0.036
23,CAGCGAACGG,1.02 ± 0.026
24,GTTTAAAGTC,0.989 ± 0.059
25,GGGGGAAGTG,0.976 ± 0.026

row,Sequence,switch fluorescence ratio
1,CCAAAGAATT,1.03 ± 0.059
2,AGGTTAGTGG,1.015 ± 0.01
3,AGTCTAGGCG,0.985 ± 0.011
4,CGACGGGCAG,1.01 ± 0.042
5,GGGCCGTTTG,1.002 ± 0.0047
6,AAGTACTATC,1.26 ± 0.025
7,GCGGAAGGAG,1 ± 0.016
8,ATAAACAAAG,0.959 ± 0.015
9,AAGGTTAAGG,0.993 ± 0.025
10,CCATTTTGCG,1 ± 0.011
11,TTTTAGGTGG,0.98 ± 0.067
12,ATGTGGAGTC,1.05 ± 0.063
13,CGGGTACTTT,1 ± 0.059
14,TCTGGTTGTA,0.995 ± 0.051
15,TCAATCTCCT,1.03 ± 0.088
16,TTTTTAGTAG,1.01 ± 0.03
17,GCTTTTTGGG,0.963 ± 0.039
18,CATAAATGTT,1.02 ± 0.016
19,CATAGGGGCG,0.984 ± 0.023
20,TTATGATTCT,0.972 ± 0.025
21,TTAAAGAAAT,1.05 ± 0.091
22,ACGACTGTAG,1.02 ± 0.029
23,GGTTCTTTAG,1.015 ± 0.0033
24,GTGGGGGTTC,0.985 ± 0.041
25,GCGCTTTTTT,0.9898 ± 0.00075

row,Sequence,switch fluorescence ratio
1,TTGTTTAAAG,0.9764 ± 0.0021
2,GCAGGGGAGT,1.17 ± 0.29
3,TGACTGAAAA,1.009 ± 0.007
4,GTACATATAA,1.03 ± 0.011
5,TCGAGGGGCG,1.06 ± 0.019
6,TTGTTATGGC,0.9795 ± 0.0059
7,GTTTGCAAAT,0.991 ± 0.034
8,ATTGGACTAG,0.989 ± 0.07
9,AGTTCATATA,1.013 ± 0.0011
10,TACCAATAAG,1.03 ± 0.044
11,AAATAATTGG,1.09 ± 0.013
12,GCTGCGGGCT,1.18 ± 0.24
13,CTTAGGGCTC,1.026 ± 0.0042
14,TTGTGGTCGG,0.982 ± 0.036
15,AAGCTGGCGG,0.9911 ± 0.0096
16,GACGTAAGTT,1.02 ± 0.018
17,GCTATTAGGA,0.984 ± 0.033
18,TGTATTTAAG,0.97 ± 0.035
19,TGTTTCTGG,0.996 ± 0.036
20,GACTAGGCGG,1.12 ± 0.2
21,CCAAAATTGG,1.018 ± 0.0052
22,TCGATCATAA,0.9901 ± 0.0015
23,TTTGGCTTTT,1.06 ± 0.18
24,GAAGGGCAAG,1.02 ± 0.038
25,CGCGAGATAT,1.03 ± 0.043

row,Sequence,switch fluorescence ratio
1,GATTTTTGCC,1.01 ± 0.031
2,TAAAAATCCC,1.16 ± 0.083
3,GATATATGCA,0.997 ± 0.028
4,GGTGATGGTG,0.976 ± 0.047
5,TTGGGCCCGG,0.9878 ± 0.0073
6,AATGTTACGC,1.02 ± 0.058
7,TATCTTTCTT,1.06 ± 0.019
8,TTTTTTAGAC,1.04 ± 0.08
9,GGACAAGAGA,0.996 ± 0.038
10,GGTCTTGGGC,1.02 ± 0.026
11,GGTTGAAGAG,0.955 ± 0.011
12,CAACTGGCGG,0.99 ± 0.017
13,TACCTATTGG,0.9974 ± 0.0039
14,TACCATGACC,1.109 ± 0.0081
15,TAGATTGAAA,0.986 ± 0.028
16,TTTCTAGGTT,1 ± 0.041
17,GGGTCCGGCC,0.992 ± 0.02
18,CTGAAGGGCT,1.04 ± 0.017
19,TTCCGGCTCT,1.61 ± 0.8
20,TGATGAGATC,0.9734 ± 0.0082
21,TGAAGGGGAA,1.02 ± 0.061
22,ATCCTAAATT,1.02 ± 0.0024
23,TCAGAGTGTG,0.989 ± 0.019
24,TTGGGTTGGA,0.996 ± 0.017
25,TAGATTCGTT,0.9907 ± 0.0071

row,Sequence,switch fluorescence ratio
1,CATCCTTTTA,1.054 ± 0.0037
2,GGACGGGTTA,1 ± 0.016
3,TTGATTGACA,1 ± 0.043
4,TTTTAATTGT,1.08 ± 0.083
5,TAAGCGCGGC,1.055 ± 0.0079
6,CGTTTTTTAT,1.02 ± 0.031
7,AGACCATCGT,1.01 ± 0.032
8,GAAGGAGGGC,0.995 ± 0.085
9,CGTGGGGATG,1.001 ± 0.0031
10,AGATATTTAT,0.987 ± 0.014
11,TTTATTTACG,1.033 ± 0.0082
12,TTTGGTAGGG,1.02 ± 0.021
13,AAGGTCCGCT,1.05 ± 0.02
14,AATTTACGAT,1.02 ± 0.014
15,AAAGCTCACC,1.12 ± 0.026
16,TTTGGCTTAC,1.55 ± 0.72
17,CATTAGGCAA,1.696 ± 0.0032
18,GAGGTAGTGG,0.968 ± 0.027
19,TCAAGCTCAT,0.974 ± 0.023
20,CACGTATGTT,1.09 ± 0.021
21,TACGTGGTGG,1.05 ± 0.024
22,GAAGGTGCGA,1.15 ± 0.052
23,TTTATGGTAT,0.982 ± 0.028
24,CGAGTGGGTG,0.996 ± 0.018
25,AGGGGATAGC,1.01 ± 0.017

row,Sequence,switch fluorescence ratio
1,TACGGTTGGC,0.989 ± 0.023
2,GAGAAAGGGG,1.06 ± 0.14
3,TCTTTCACGC,1.09 ± 0.085
4,TGGCCGGTTT,1.01 ± 0.011
5,TTCCAAGACA,1.01 ± 0.026
6,AGCGTTTATA,1.018 ± 0.0013
7,GAGGAAGGAC,1.04 ± 0.014
8,ACAATTTATT,1.02 ± 0.051
9,GTTGGGCCGA,1.03 ± 0.038
10,GGGTACGCTT,1 ± 0.025
11,TTTAAAATTA,0.9978 ± 0.0042
12,AGTGGGAACC,0.998 ± 0.025
13,AAAATTGCGT,1.16 ± 0.2
14,CCGCATGGGG,1.49 ± 0.057
15,GACAGGGGGA,1.035 ± 0.0072
16,GAGGGTTAC,1.006 ± 0.0062
17,TTGCGCTATT,1.07 ± 0.018
18,GTGGACCAGT,0.972 ± 0.024
19,TACGGGGGCG,1.01 ± 0.1
20,AGGTTTGCTA,0.959 ± 0.017
21,CGTTTAGTTG,1.002 ± 0.009
22,ACTATTATCT,1.023 ± 0.0099
23,TTTCAGTACA,0.988 ± 0.01
24,GGAATGTTGG,0.991 ± 0.032
25,TGCAGCATCT,1.13 ± 0.032

row,Sequence,switch fluorescence ratio
1,TTATGTTAAA,1.01 ± 0.022
2,TATGGACATT,1.03 ± 0.011
3,TCGGGTCCGT,0.982 ± 0.027
4,GAGTATTAGG,1.02 ± 0.0094
5,ATCAAGGGGT,1.01 ± 0.019
6,GGGTATACGG,0.982 ± 0.086
7,GACCACAGCG,1.02 ± 0.029
8,TATTGTTGGG,0.976 ± 0.03
9,TTCTTAGCCG,1.0545 ± 0.00031
10,AATGTGGTTG,0.997 ± 0.013
11,TAGGCCAGTA,1.024 ± 0.0091
12,CGTAACGGGA,1.037 ± 0.0076
13,TTGACAGGCA,0.968 ± 0.012
14,AGTAAATGGA,0.9854 ± 0.0055
15,AGGCACAGAA,1.019 ± 0.0098
16,GTGAGGTTTT,0.985 ± 0.021
17,CGTTTGAGTT,0.984 ± 0.026
18,TAAGCCTTTT,1.038 ± 0.0024
19,ATCCGCGCGT,1 ± 0.014
20,ATTGGTAGAG,0.9717 ± 0.0024
21,TAGAAAGGGC,1.01 ± 0.08
22,AGATAAAAGG,0.998 ± 0.015
23,TGAGCGTTGG,0.9987 ± 0.0062
24,ACGGTAGTGC,1.04 ± 0.022
25,GGGGATGCTG,0.902 ± 0.21
